The results in this text go back to US20230242671A1 (Eli Lilly, published 2023).

As usually defined, the EC50 is the concentration needed to bring the measured effect to its halfway point. A low value points to a more potent agent.

Experiment [1] deals with T1, CaptureSelect Kappa XL ligand.
T1 construct: also called Biotin-KappaXL; Kappa XL column
Description: ELISA, antibody titrated on goat anti-human-IgG, Biotin-KappaXL at 1 ug/ml. As to the method: Binding of the light chain Fab region formats of Table 1a for exemplified IgG hetermabs to Kappa XL ligand may be assessed via ELISA. Briefly, 96-well flat bottom ELISA plates are coated with 2 ug/mL goat anti-human-IgG protein at 100 ul/well and incubated overnight at 4° C. The following day, plates are washed 3× with wash buffer (0.05% PBS-Tween 20) and blocked for 1 hr with blocking buffer (casein, 200 μL/well) at room temperature (RT). Plates are washed 3× with wash buffer, and binding proteins (as shown in Table 5) are added at 10 μg/mL and serially diluted at 1:3 at 100 uL/well in DPBS (Dulbecco's HyClone). Plates are incubated at RT for 1 hr, are washed 3× with wash buffer and Biotin-KappaXL is added at 1 ug/ml at 100 uL/well. Plates are then incubated for 1 hr at RT, washed 3×, and 100 uL/well of SA-AP is added to each well and incubated 30 min at RT. Plates are then washed 3×, and 100 uL/well PNAP substrate is added. Reactions are stopped and the optical density is measured using a colorimetric microplate reader set to 405 nm.

The target is the same in experiment [2]. Description: CaptureSelect Kappa XL affinity column after Protein A. An excerpt: Multispecific binding proteins of the present disclosure, in clarified medium or recovered from Protein A purification, may be subjected to a second purification step using a CaptureSelect™ Kappa XL (Thermo Fisher Cat. #494321001) pre-packed affinity column. Briefly, multispecific binding proteins of the present disclosure recovered from Protein A purification are subjected to a Kappa XL affinity column which has been equilibrated with a compatible buffer, such as phosphate buffered saline (PBS) at pH 7.4. The column is then washed to remove nonspecific binding components. The bound multispecific binding protein is eluted, for example, by pH gradient (such as 20 mM Tris buffer pH 7.0 to 10 mM sodium citrate buffer pH 3.0). Binding protein fractions are detected, such as by UV absorbance or SDS-PAGE, and then are pooled.
Percent flow through (% F T) and percent elution of exemplified heteromabs of the present disclosure following kappa XL column purification essentially as described herein is assessed. Briefly, various antibody formats (as set forth in Table 3) are subjected to Kappa XL column. Flow through material is considered to comprise of impurities, such as homodimers, or misassembled antibodies, whereas the Kappa XL ligand bound material (elution material) is considered to be the correctly assembled bispecific antibody.

Experiment [3] deals with T2, Protein A (UniProt P38507 37-327, biotin (site not stated)).
T2 construct: Reagent; also called Biotin-Protein A; Protein A ligand
The experiment can be described thus: ELISA, antibody titrated on goat anti-human-kappa, Biotin-Protein A at 0.5 ug/ml. As to the method:
Binding of the heavy chain Fc region formats of Table 1b for exemplified IgG heteromabs to Protein A ligand may be assessed via ELISA. Briefly, 96-well flat bottom Elisa plates are coated with 2 ug/mL goat anti-human-kappa protein at 100 ul/well and incubated overnight at 4° C. The following day, plates are washed 3× with wash buffer 0.05% PBS-Tween 20 (PBS-T)) and blocked for 1 hr with blocking buffer (casein, 200 µL/well) at room temperature (RT). Plates are washed 3× with wash buffer, and binding proteins (as shown in Table 4) are added to individual wells at 10 μg/mL and serially diluted 1:3, at a volume of 100 uL/well in PBS-T. Plates are incubated at RT for 1 hr, and washed 3× with wash buffer. Biotin-Protein A at 0.5 ug/ml is added at 100 uL/well and plates are incubated for 1 hr at RT, washed 3×, and 100 uL/well of streptavidin labeled alkaline phosphatase (SA-AP) is added to each well. Plates are incubated 30 min at RT. Plates are then washed 3×, and 100 uL/well of p-Nitrophenyl Phosphate, Disodium Salt (PNAP)(Thermo Fisher Scientific) substrate is added. Reactions are stopped and optical density is measured using a colorimetric microplate reader set to 405 nm.

B1: cMet-BAH10 parental IgG1 heteromab (bispecific antibody)
heavy 1: EVQLVESGGGLVQPGGSLRLSCAASGYTFTSYWLHWVRKAPGKGLEWVGMIDPSNSDTRFNPEFKDRFTISADTSKNTAYLQMNSLRAEDTAVYYCATYRSYVTPLDYWGQGTLVTVSSASTKGPSVFPLAPSSKSTSGGTAALGCLVKDYFPEPVTVSWNSGALTSGVATGPAVLQSSGLYSLSSVVTVPSSSLGTQTYICNVNHKPSNTKVDKKVEPKSCDKTHTCPPCPAPEAAGGPSVFLFPPKPKDTLMISRTPEVTCVVVDVSHEDPEVKFNWYVDGVEVHNAKTKPREEQYNSTYRVVSVLTVLHQDWLNGKEYKCKVSNKALPAPIEKTISKAKGQPREPQVYTLPPSREEMTDNQVSLTCLVKGFYPSDIAVEWESNGQPENNYKTTPPVLMSDGSFFLASKLTVDKSRWQQGNVFSCSVMHEALHNHYTQKSLSLSPGK
light 1: RIQMTQSPSSLSASVGDRVTITCKSSQSLLYTSSQKNYLAWYQDKPGKAPKLLIYWASTRESGVPSRFSGSGSGTDFTLTISSLQPEDFATYYCQQYYAYPWTFGQGTKVEIKRTVAAPSVFIFPPSDEQLKSGTASVVCYLNNFYPREAKVQWKVDNALQSGNSQESVTEQDSKDSTYSLWSTLTLSKADYEKHKVYACEVTHQGLSSPVTKSFNRGEC
heavy 2: QVQLVQSGAEVKKPGSSVKVSCKASGYTFTTYYLHWVRYAPGQGLEWMGWIYPGNVHAQYNEKFKGRVTITADKSTSTAYMELSSLRSEDTAVYYCARSWEGFPYWGRGTTVTVSSASTKGPSVFPLAPCSKSTSGGTAALGCLVKDYFPEPVTVSWNSGALTSGVHTFPAVLQSSGLYSLSSVVTVPSSSLGTQTYICNVNHKPSNTKVDKKVEPDSGDKTHTCPPCPAPEAAGGPSVFLFPPKPKDTLMISRTPEVTCVVVDVSHEDPEVKFNWYVDGVEVHNAKTKPREEQYNSTYRVVSVLTVLHQDWLNGKEYKCKVSNKALPAPIEKTISKAKGQPRRPRVYTLPPSREEMTKNQVSLVCLVKGFYPSDIAVEWESNGQPENNYKTTPPVLDSDGSFFLYSVLTVDKSRWQQGNVFSCSVMHEALHNHYTQKSLSLSPGK
light 2: DIQMTQSPSSLSASVGDRVTITCKASQNVGINVAWYQRKPGDAPKSLISSASYRYSGVPSRFSGSGSGTDFTLTISSLQPEDFATYFCQQYDTYPFTFGQGTKVEIKRTVAAPSVFIFPPSKEQLKSGTASVVCLLNNFYPREAKVQWKVDNALQSGNSQESVTEQDSKDSTYSLSSTLTLSKADYEKHKVYACEVTHQGLSSPVTKSFNRGEC
notes: control; also called cMet-BAH10 IgG1 heteromab; cMet-BAH10 IgG heteromab
In turn, B1 returned an EC50 in experiment [1] of 0.57 nM. Besides, in experiment [2], the “% Elution” value turned out to be 94.5% and the “% Flow Through (FT)” value was found to be 5.5%. In experiment [3], this molecule displayed a half-maximal effective concentration (EC50) of 0.48 nM.
